Data: the nanobody polyreactivity screen of Harvey et al. (2022)

Experiment: yeast display, Sf9 membrane polyspecificity reagent, FACS + sequencing; frameworks hold sequencing errors
How it was run: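 Nanobodies came from a synthetic yeast display library in Saccharomyces cerevisiae BJ5465, induced with galactose for 36–48 hours and stained for 1 hour at 4 °C with 10% biotinylated, detergent-solubilized Sf9 membrane reagent. Cells were enriched on streptavidin microbeads and then FACS-sorted, with low and high (top ~1%) gates set on anti-HA fluorescence for expression and streptavidin fluorescence for reagent binding. Each polyreactivity label reflects the gate a clone came from. Genes were amplified by colony PCR, sequenced by MiSeq 2 × 250 and filtered by CDR length.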

Sequence	polyreactivity (PSR sort gate)
QVQLVESGGGLVQAGGSLRISCAASGFIFTRYVMGWYSQAPGKERELVAGISTRGARTYYADSVKGRFTISRDNAKNTVYLQMNSLKPEDTAVYYCAKDYYKHYYWGQGTQVTVSS	high polyreactivity
QVQLVESGGGLVQAGGSLRISCAASGFIYTRYTMGWYRQAPGKERELVAVINSSGGSTYYADSVKGRFTISRDNAKNTVYLQMNSLKPEDTAVYYCNALSRYRIWSYGYWGPGTQVTVSS	high polyreactivity
QVQLVESGGGLVQAGGSLRISCAASGFTFFSNAMGWYRKAPGKERELVAAITSSGGSTYADTVKGRFTISRDNAKNTVYLQMNRLKPEDTAVYYCAADAQAPPGGFKEYDYWGQGTQVTVSS	low polyreactivity
QVQLVESGGGLVQAGGSLRISCAASGFTFGPYDMGWYRQAPGKERELVAAITDSSGSTHYADSVKGRFTISRDNAKNTVYFQMNSLKPEDTAVYTCAADDSSRTTYYYWGQGTEVTVSS	low polyreactivity
QVQLVESGGGLVQAGGSLRISCAASGFTFGRYAMGWYRQAPGKEREFVASISARGGNTFYADSVKGRFTISRDNAKNTVYLQMTSLKPEDTAVYYCNALTYFKRSEYYWGQGTQVTVSS	high polyreactivity
QVQLVESGGGLVQAGGSLRISCAASGFTFSLNGMGWYRQAPGKEREMVAAIRSGGSTNYADSVKGRFTISLDNAKYTVYIQMNSLKPEDTAVYYCATDIHSVHNNRDKHDYDYLGQGTQVTVSS	low polyreactivity
QVQLVESGGGLVQAGGSLRISCAASGFTFYIYAMGWYRQAPGKERELVAAISARGGSTYYADSVKGRFTISRDNAKNTVYLQMNSLKPEDTAVYYCNALYNYAEIYGRGYWGLGTQVTVSS	high polyreactivity
QVQLVESGGGLVQAGGSLRISCAASGFTLRVNAMGWYRQAPGKERELVAAISDSGGDTYYSNSVKGRFTISRDNAKNTVYLQMNSLKPEDTAVYYCAADDGSENDYWGQGTQVTVSS	low polyreactivity
QVQLVESGGGLVQAGGSLRISCAASGGIFFQNAMGWYRQAPGKERELVAAISWSAGSTYYADSVKGRFTISRDNAKNSVDLQMNRQKPEDTAVDSCAGRVGCGRAIDLYYYWGQGTQVTVSS	low polyreactivity
QVQLVESGGGLVQAGGSLRISCAASGGTFQPYAMGWYRQAPGKERELVAAITSSDGSTYYADSVKWRFTISRDNAKNTVYLQMNSLKPEDTAVYYCNATIASGYGDRYVDTSHDYWGQGTQVTVSS	low polyreactivity
QVQLVESGGGLVQAGGSLRISCAASGGTFRPNAKGWSRQAPGKERELVAAITRSGGSTYYADSVKGRFTISRDNAKNTVYLQRNSLKPEETAVYYCARDLREWGQGTQVTVSS	low polyreactivity
QVQLVESGGGLVQAGGSLRISCAASGIIFKGYAMGWYRQAPGKERELVAAISHNADSTYADSVKGRFTISRDNAKNTVYLQMNSLNPEDTAVYYCNADTPLRSDYWGQGTQVTVSS	low polyreactivity
QVQLVESGGGLVQAGGSLRISCAASGIIFRLNAMGWYRQAPGKERELVAAIRRRGGSTYYADSVKGRFTISRDNAKNTVYLQMNSLKPEDTAVYYCAKDPHGSDFGYWGQGTQVTVSS	low polyreactivity
QVQLVESGGGLVQAGGSLRISCAASGIIFVWNAIGWYRQAPGKERELVADISWSSGRTYYADSVKGRFTISRDNAKNTVYLQMNSLIPEDTAVYYCATDDFWNVIFYAYYPEFDYWGQGTQVTVSS	low polyreactivity
QVQLVESGGGLVQAGGSLRISCAASGITASNAMGWNRQAPGKERELVAAISCRGGRTYYADSVKGRFTISRDNAKNTVYLQMNSLKPEDTAVYYCAKRYYTAQSRSDYWGQGTQVTVSS	high polyreactivity
QVQLVESGGGLVQAGGSLRISCAASGITFQSNAMGWYRQAPGTERELVAGITGNGGSTYYADSVKGRFTISRDNAKNTVYLQMNSLKPEDTAVYYCNIGRRKRTRYDYWGQGTQGTVSS	high polyreactivity
QVQLVESGGGLVQAGGSLRISCAASGITLAKNAMGWYRQAPGKETELVAAISRRGGNTYYADSVKGRFTISRDNAKNTVYLQMNSLKPEDTAVYYCAVDYRSTGLGYWGQGTQVTVSS	high polyreactivity
QVQLVESGGGLVQAGGSLRISCAASGLIFRHNAMGWYRQAPGKERELVAAITGSGSTYYADSEKGRFTISRDNAKNTVYLQMNSLKPEDTAVYYGNADYPGGLQEEDYWGQGTQVTVSS	low polyreactivity
QVQLVESGGGLVQAGGSLRISCAASGLTFNAYAMGWYRQAPGKERELLADITTSDGSTFYADSVKGRFTISRDKATNTVYLQMNSLKPEDTAVYYCNADAYGWYSGPWFKWLLWYDYWGQGTQVTVSS	low polyreactivity
QVQLVESGGGLVQAGGSLRISCAASGLTFRRNAMGGYRQAPGKERELFAAITASGGSTYYADSVTGRFTISRDNAKNTVFLQMNSLKPEETAVYYSAAVNYRWYSRNYDHYYWGQGTQVTVSS	high polyreactivity
QVQLVESGGGLVQAGGSLRISCAASGLTFVYYTMGWYSQAPGKEREFVAGIDWSGGSTYYADSVKLRFTISRDNAKNTVYLQMNSLKPEDTAVYYCAAAVYYQYGVYRHDYWGQGTQVTVSS	low polyreactivity

Sequence	polyreactivity (PSR sort gate)
QVQLVESGGGLVQAGGSLRISCAASGLTIVPNAMGWYRQAPGKERELVAAISNNGGRTYYADSVKGRFTISRDNAKNTVYLQMNSLKPEDTAVYYCAKYLSPGERHSYDYWGQGTQVTVSS	high polyreactivity
QVQLVESGGGLVQAGGSLRISCAASGNICSWYAMGWSRQAPGKERELVAAIRWSSGSTYYADSVKWRFTISRDNAKNTVYLQMNSMKPEDTAVYYCAAVIKGWGQGTQVTVSS	high polyreactivity
QVQLVESGGGLVQAGGSLRISCAASGNTFDYYTMGWYRQAPGKERDLVASIDWSTTTTYYADSVKGRFTISRDNAKTTVYLQMKSLKPEDTAVYYCNTVYDFYHLGLYSGFRYHYWGQGTQVTVSS	low polyreactivity
QVQLVESGGGLVQAGGSLRISCAASGRICAYNAMGWYRQAPGKERELVAAITWSGGTTYYADSVKGRCTISRDNAKNSVYFQRNSLKPEVTAVYYCAATVGAASRYYYWAQGTQVTVSS	high polyreactivity
QVQLVESGGGLVQAGGSLRISCAASGRIFDLYAMGWYRQPPGKERELVASISSDGSTNYADSVKGRFTISRDNAKNTVYLQMNSLKPEDTAVYYCATRKGRRYGYNYWGQGTQVTVSS	high polyreactivity
QVQLVESGGGLVQAGGSLRISCAASGRIFDRYVLGWYRQAPGKERELVAAISSGGSTYYADSVKGRFTISRDNAKNTVYLQMNSLKPEDTAVYYCAADRRSKYDYWGQGTQVTVSS	low polyreactivity
QVQLVESGGGLVQAGGSLRISCAASGRIFDYNVMGWYRQAPGKERELVAGISSGGSTYYADSVKGRFTISRDNAKNTVYLQMNSLKPEDTAVYYCAARGRPYRGYGYWGQGTQVTVSS	high polyreactivity
QVQLVESGGGLVQAGGSLRISCAASGRIFGENAMGWYRQAPGKERELVAAIRFSSGSTYYADSVKGRFTISRDNAKNTVYLQMNSLKPEDTAVYYCNADGWYALYEWLAVSGYYWGQGTQVTVSS	low polyreactivity
QVQLVESGGGLVQAGGSLRISCAASGRIFLGNAMGWYRQAPGKERELVAAITNGGGSTYYADSVKGRFTISRDNAKNTVYLQMNSLKPEDTAVYYCARGYKKSVQRFEYWGQGTQVTVSS	high polyreactivity
QVQLVESGGGLVQAGGSLRISCAASGRIFPVNAMGWYRQAPGKERELVARISWRGGTYYADSVKGRFTISRDNAKNTVYLQMNSLKPEDTAFYYCAATLASTSYWYHYGYWGQGTQVTVSS	high polyreactivity
QVQLVESGGGLVQAGGSLRISCAASGRIFRAYAMGWYRQAPGKERELVADIRSTGSTNYADSVKGRFTISRDNAKNTVYLQMNSLNPEDTAGYYCAARWRSLRFGSGFEYWGQGTQVTVSS	high polyreactivity
QVQLVESGGGLVQAGGSLRISCAASGRIFTRNAMGWYTQAPGNETELVAAITSGGSTNYADSVKGRFTISRDNAKNTVYLQMNSLKPEDTAVYFCYAVYYPYRIWGRVRPSYGYWGQGTQVTVSS	high polyreactivity
QVQLVESGGGLVQAGGSLRISCAASGRIFYFNTMGWYRQAPGKERELVAAISLSGGRTYYADSVKGRFTISRDNAKNTVYLQMNSLKREDSAVYYCNAVARSRSRDTSKGDYWGQGTQVTVSS	high polyreactivity
QVQLVESGGGLVQAGGSLRISCAASGRIFYGNAMGWYRQAPGKERELVAAIRRSGGSTYYADSVKGRFTISRDNAKNTVYLQMNSLKPEDTAVYYCNVDSGEFDYVWVYTYDYWGQGTQVTVSS	low polyreactivity
QVQLVESGGGLVQAGGSLRISCAASGRIFYYNAMGWYRQAPGKERELVAAITSGGSTNYADSVKGRFTISRDNAKNTVYLQMNSLKPEDTAVYYCAADYYYYVAGVHYDYWGQGTQVTVSS	low polyreactivity
QVQLVESGGGLVQAGGSLRISCAASGRTFARNSMGWYRQAPGKERELVATITIGGRTYYADSVKGRFTISRDNAMNTVYLQMNSLKPEDTAVYYCAKRISGYRGDYWGQGTQVTVSS	high polyreactivity
QVQLVESGGGLVQAGGSLRISCAASGRTFDSYAMGWYIQAPGKEREFVAAISYSGTSTYYADSVKGRFTISRDYAKNTVYLQMNSLIPEDTAVYYCAKEFIFRLWGQGTQVTVSS	low polyreactivity
QVQLVESGGGLVQAGGSLRISCAASGRTFHYYDMGWYRQAPGKERELVAAISSTAGSTYYADSVKGRFTISRDNAQNTVHLQMNSLKPEDTAVYYCAARQFGYYHVRNEYWGQGTQVTVSS	high polyreactivity
QVQLVESGGGLVQAGGSLRISCAASGRTFKSYAMGWYRQAPGKERELVAAISSSGGRTFYADSVKGRFTISRDNAKNTVYLQMNSLKPEDTAVYYCNARYCYRYGGYKPVGGYYWGQGTQVTVSS	high polyreactivity
QVQLVESGGGLVQAGGSLRISCAASGRTFPGYTMGWYRQAPGKERELVAAITRVGTTYYADSVKGRFTISRDNAKNTVYLQMNSLKPEDTAVYYCAAVISQGFIRYYYWGQGTQVTVSS	high polyreactivity
